In patent US20230235078A1 (University of Texas, published 2023):
Positions count from the first letter of the chain named.

T1: human DDR2 ECD (human, UniProt Q16832 22-399)
T1 construct: extracellular domain; also called DDR2 ECD protein
T1 sequence (looked up): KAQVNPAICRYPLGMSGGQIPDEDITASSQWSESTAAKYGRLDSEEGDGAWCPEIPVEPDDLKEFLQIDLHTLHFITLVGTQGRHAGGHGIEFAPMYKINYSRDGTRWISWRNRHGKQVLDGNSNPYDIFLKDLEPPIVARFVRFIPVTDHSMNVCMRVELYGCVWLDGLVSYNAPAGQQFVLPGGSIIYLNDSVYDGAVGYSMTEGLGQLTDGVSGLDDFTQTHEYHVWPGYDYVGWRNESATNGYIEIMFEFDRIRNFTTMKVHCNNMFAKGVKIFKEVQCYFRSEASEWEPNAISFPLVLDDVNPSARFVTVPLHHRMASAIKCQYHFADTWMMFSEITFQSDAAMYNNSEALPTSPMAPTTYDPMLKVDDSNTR

B1: DDR1-23 (antibody, V domains shown)
VH: SQSVKESGGDLVKPGASLTLTCKASGFDLRSYYYMCWVRQAPGKGLEWIACIHGGEGNTYYASWAKGRFTISKTSSTAVTLQMTSLTAADTATYFCARGGWTNYFWGPGTLVTVSS
VL: ELVLTQTPSSVSAAVGGTVTISCQSSQSVYSNNYLAWYQQKPGQPPKLLIYAASTLASGVPSRFKGSGSGTQFTLTISGVQCDDAAVYYCLGGYNDDANFGGGTEVEIK
notes: also called DDR1-23K/DDR1-23H
B2: DDR1-26 (antibody, V domains shown)
VH: EQSLKESGGDLVKPGASLTLTCTASGFDLSSNYYMCWVRQAPGKGPEWIACIYSSNTRTWYARWAKGRFTISKTSSTAVTLQMTSLTAADTATYFCARGGWTNYLWGPGTLVTISS
VL: B1 VL with V3D, Q27E, Y34H, K65S, E107V, I108V
notes: also called DDR1-26K/DDR1-26H
B3: DDR1-20 (antibody, V domains shown)
VH: QSVKESGGGLFKPMDTLTLTCTVSGFSLSDYAMSWVRQAPGKGLEWIGIINSRDDTGYASWAKGRFTISKTSSTTVDLRITSPTTEDTATYFCAREDSSIPFIVGNYYGMDLWGPGTLVTVSS
VL: ELDLTQTPASVSAAVGGTVTINCQSSQIIDHDHLSWYQQKPGQRPKLLIYRASTLTSGVPSRFKGSGSGTDFTLTISDLECADVATYYCQNNNGMTVSDFNAFGGGTEVEIK
notes: also called DDR1-20K/DDR1-20H
B4: DDR1-29 (antibody, V domains shown)
VH: QSVKSGGGLVKPGASLTLTCKASTFSFNSRYWTCWVRQAPGKGLEWIGCINNGDITTYYTNWATGRFTISKSSSTTVTLQMTSLTAADTATYFCAKGGNLAGDCYGLWGPGTLVTISG
VL: ELVMTQTPASVEAAVGGTVTIKCQASQSISNHLGWYQQKPGQPPKLLIYRASTLESGVSSRFKGSGSGSEFTLTISDLECADAATYYCQSYYIINRSNYANSFGGGTEVEIK
notes: also called DDR1-29K/DDR1-29H
B5: DDR1-5 (antibody, V domains shown)
VH: QSVKESGGRLVTPGTPLTLTCTVSGFTLSNNAISWVRQAPGKGLEWIGIIYASGRTYYATWAKGRFTISKTSTTVDLKMTSPTTEDTATYFCARGDTETDYGIPYFDLWGPGTLVTISS
VL: ELVLTQTPASVSEPVGGTVTIKCQASQTISSWLSWYQQKPGQPPKLLIYYAFNLASGVPSRFKGSGSGTEYTLTISDLECADAATYYCQCTYGSGSSSSYGCAFGGGTELEIK
notes: also called DDR1-5K/DDR1-5H
B6: DDR1-1 (antibody, V domains shown)
VH: QSVEESGGRLVTPGTPLTLTCTVSGFSLSRYAMTWVRQAPGKGLEWIGIIGSSGLTYFATWAKGRFTISKTSTTVDLKITSPTTEDTATYFCARGMWYDDSDDYEDYFNLWGPGTLVTISS
VL: ELVLTQTPASVSAAVGGTVTINCQASQNIYSNLAWYQQKPGQPPKLLIYGASNLESGVPSRFKGSGSGTQFTLTISDLECDDAATYYCQSGYYSSSTDIAFGGGTEVVVK
notes: also called DDR1-1K/DDR1-1H
B7: DDR1-21 (antibody, V domains shown)
VH: QSLEESGGRLVTPGTPLTLTCTVSGFSLSSYGVHWVRQAPGKGLDWIGKIYPSGSIYYSSWAKGRFTISKTSTTVDLKMTSLTTEDTATYFCVRYLTGSSDLHLWGPGTLVTISS
VL: ELVLTQTPSSTSAAVGGTVTISCQSSQSVVDKNWLAWYQQKPGQPPKLLIYEASKLASGVPPRFSGSGSGTQFTLTISGVQCDDAATYYCAGDFESGVSGFGGGTEVEIK
notes: Rabbit variable domains; Detected with anti-rabbit HRP antibody in the DDR2 ELISA; also called DDR1-21K/DDR1-21H
B8: DDR1-17 (antibody, V domains shown)
VH: SSVEESGGRLVAPGTPLTLTCTVSGFSLNRYAMSWVRQAPGKGLEWIGIIGSSGSTYYASWAKGRFTISKTSTTVDLKITSPTTEDTATYFCARDLDDSYGYTYATGMDIRLDLWGQGTLVTVSS
VL: ELVLTQTPASVSEPVGGTVTIKCQASQSIGSYLSWYQQKAGQPPKRLIYEASTLASGVPSRFSGSGSGTDFTLTISDLECADVATYYCQNNNGMTVSDFNAFGGGTEVEIK
notes: also called DDR1-17K/DDR1-17H
B9: DDR1-6 (antibody, V domains shown)
VH: SQSLKESGGDLVKPGASRTLTCIAPGFSFSSSYYMCWVRQAPGKGLEWIACIYASSGSTYYASWAKGRFTISKTSSTTVTLQMTTLTAADTATYFCAAILGADYRLTRLDLWGQGTLVTVSS
VL: ELVMTQTPSPVSAAVGGTVTISCQSSQSVYSNYLSWYQQKPGQPPKLLIYETSTLASGVPSRFKGSGSGTQFTLTISDVQCDDAATYYCQGGYSEIIENTFGGGTEVEIK
notes: also called DDR1-6K/DDR1-6H
B10: DDR1-13 (antibody, V domains shown)
VH: EQSVEESGGRLVTPGGSLTLTCTASGFSLNNYAIIWVRQAPGKGLEYIGIFNNGDIYYANWAKGRFTISKTSTTVGLKIVSPTTEDTATYFCARTGYRTGGWLWGPGTLVTISS
VL: ELVMTQTPSPVSAAVGGTVSISCQSSKSVYNNNALSWFQQKPGQPPKVLIYGVSTLDSGVSSRFSGSGYGTEFTLTISDVQCDDAATYYCAGDYSDISDNNFGGGTELEIK
notes: Rabbit variable domains; Detected with anti-rabbit HRP antibody in the DDR2 ELISA; also called DDR1-13K/DDR1-13H
B11: DDR1-22 (antibody, V domains shown)
VH: QSVKESGGRLVTPGGSLTLTCTVSGFSLSDYAMIWVRQAPGKGLEYIGIINNGDIYYATWAKGRFTISETSSTTMGLNIISPTTEDTATYFCARPGYRTGIWLWGPGTLVTISS
VL: ELVLTQTPSPVSAAVGGTVTINCQSSKNIYNNNALSWFQQKPGQPPKLLIYGASTLASGVPSRFKGSGSGTQFTLTISDVQCDDAATYYCAADYSDISDNNFGGGTEVVVK
notes: Rabbit variable domains; Detected with anti-rabbit HRP antibody in the DDR2 ELISA; also called DDR1-22K/DDR1-22H
B12: DDR1-12 (antibody, V domains shown)
VH: QSLEESGGRLVTPGTPLTLTCTVSGIDLSNTWMNWVRQAPGKGLEWIGVITDSGTTYYANWAKGRFTISRTSTTVDLKMPSLTTEDTATYFCGRDPGDITSGTNDLWGPGTLVTISS
VL: ELVLTQTPASVSEPVGGTVTIKCQASQTIYSNLAWYQQKPGQRPKLLIYQASKLASGVPSRFKGSGSGTEYTLTISDLECADAATYYCQSYYGADDYTFGGGTEVVVK
notes: also called DDR1-12K/DDR1-12H
B13: DDR1-15 (antibody, V domains shown)
VH: SQSLEESGGDLVKPGASLTLTCTASTFSFNSRYWTCWVRQAPGKGLEWIGCINNGDISTYYASWATGRFTISKSSSTTVTLHMTSLTAADTATYFCAKGGNLAGDCYGLWGPGTLVTISS
VL: ELVMTQTPASVEVAVGGTVTIKCQASQTIYSSLAWYQQKPGQPPKLLIYKASTLASGVPSRFKGSGSGTQFTLTISGVQCDDAATYYCQQGSSISNVDKNAFGGGTEVEIK
notes: Rabbit variable domains; Detected with anti-rabbit HRP antibody in the DDR2 ELISA; also called DDR1-15K/DDR1-15H
B14: DDR1-11 (antibody, V domains shown)
VH: QSLEESGGDLVKPGASLTLTCTASGFSFSSGYYMCWVRQAPGKGLEWIACIYTGRTDFTDYASWAKGRFTISKTSSTTVTLQLTTLTAADTATYFCARGDYSGGVGGNYWLDLWGQGTLVTISS
VL: ELVMTQTASPVSAAVGGTVTINCQASQSIGSTYLSWYQQKPGQPPKLLIYKASILASGVPSRFSGSGSGTEYTLTISGVQCDDAATYYCLYGGFGSSTGDAFGGGTVLVVK
notes: also called DDR1-11K/DDR1-11H
B15: DDR1-28 (antibody, V domains shown)
VH: QSVEESGGRLVTPGTPLTLTCTVSGFSLSSHDMIWVRQAAGKGLEWIGLIISSGNTWYASWAKGRFTISKTSTTVDLKMTSLTTEDTATYFCARDVYSGASPWGPGTLVTISS
VL: ELDLTQTPASVEAAVGGTVTIKCQASQSIDNNDLAWYQQKPGQPPNLLISRTSTLASGVSSRFKGSGSGTEFTLTISDLECADAATYYCQSYCVNTYGYTFGGGTEVVVK
notes: also called DDR1-28K/DDR1-28H

Each binder was assayed against T2, Human DDR1 extracellular domain (ECD) protein (human, UniProt Q08345 21-417) (assay: ELISA on DDR1, antibody at 10 and 1 µg/ml).
T2 construct: it is treated here as the same molecule; also called recombinant human DDR1 ECD; huDDR1 ECD; not shown: 6xHIS-tag
T2 sequence (Q08345 21-417): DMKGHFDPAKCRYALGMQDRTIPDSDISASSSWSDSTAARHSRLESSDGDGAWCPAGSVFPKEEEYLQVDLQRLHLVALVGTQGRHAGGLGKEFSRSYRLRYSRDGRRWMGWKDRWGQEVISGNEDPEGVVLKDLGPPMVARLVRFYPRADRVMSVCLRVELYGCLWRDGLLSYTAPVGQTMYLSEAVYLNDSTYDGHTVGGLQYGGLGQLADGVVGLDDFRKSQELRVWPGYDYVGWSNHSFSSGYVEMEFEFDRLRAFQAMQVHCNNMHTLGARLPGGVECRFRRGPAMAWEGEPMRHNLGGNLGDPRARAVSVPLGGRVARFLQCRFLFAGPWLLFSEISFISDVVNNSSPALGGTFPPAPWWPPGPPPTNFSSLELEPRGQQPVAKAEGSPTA

binding result | Binder
binds | B1
binds | B2
binds | B3
binds | B4
binds | B5
binds | B6
binds | B7
binds | B8
binds | B9
binds | B10
binds | B11
binds | B12
binds | B13
binds | B14
binds | B15

The binders below were run against T1, human DDR2 ECD (assay: ELISA, DDR2 ECD coated, antibody at 1 ug/ml, HRP anti-rabbit detection).
Description: FIG. 19. Determination of cross-reactivity of a panel of monoclonal antibodies to human DDR2 using ELISA method. DDR1 or DDR2 ECD protein was coated on a high binding plate and each of monoclonal antibodies at 1 ug/ml concentration was added for binding detection with HRP conjugated anti-rabbit antibody (Jackson ImmuneResearch, PA).
To determination cross-reactivity of a panel of anti-human DDR1 monoclonal antibodies to human DDR2 ECD, an ELISA method was used. DDR1 ECD or DDR2 ECD protein was coated on a high binding plate and each of monoclonal antibodies was applied at 1 ug/ml concentration and binding was detected using HRP conjugated anti-rabbit antibody (Jackson ImmuneResearch, PA). Monoclonal antibodies DDR1-3; DDR1-9; DDR1-10; DDR1-14 and DDR1-33 were specific for DDR1 epitopes, while clones DDR1-13; DDR1-15; DDR1-21; DDR1-22 and DDR1-34 appear to recognize epitopes present on both DDR1 and DDR2 ECD.

binding result | Binder
binds | B7
binds | B10
binds | B11
binds | B13
